One may read the IC50 as the midpoint of a concentration-inhibition curve. As a reminder, the EC50 is the concentration at which the effect is half-maximal. A word on the Kd: it is the constant that tells how readily two partners part at equilibrium.

These results are taken from patent US20210040201A1 (Innovent, published 2021).

Experiment [1] has as its target T1, Human TIGIT expressed on the surface of cells (human, UniProt Q495A1 22-244).
T1 construct: also called human TIGIT expressed on the surface of CHO cells; human TIGIT overexpressed on CHO cells
T1 sequence: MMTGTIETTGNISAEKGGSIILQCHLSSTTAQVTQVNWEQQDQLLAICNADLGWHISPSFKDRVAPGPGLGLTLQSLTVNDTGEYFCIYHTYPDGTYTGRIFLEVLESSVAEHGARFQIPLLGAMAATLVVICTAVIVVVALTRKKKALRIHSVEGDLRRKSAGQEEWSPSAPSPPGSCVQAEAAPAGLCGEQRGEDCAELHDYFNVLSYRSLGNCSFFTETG
Briefly: flow cytometry competition against 50 nM human CD155-mouse IgG2a Fc on CHOS cells expressing human TIGIT; positive control. (In general: Flow cytometry measures light scatter and fluorescence of single cells or particles in a stream.)

Experiment [2] has as its target T1, Human TIGIT expressed on the surface of …. Nature of the experiment: flow cytometry on CHOS cells expressing human TIGIT; reference antibody.
For experiment [3] the target is unchanged. Briefly: cell-based or functional assay.
The target is the same in experiment [4]. Nature of the experiment: flow cytometry competition against 50 nM human CD155-mouse IgG2a Fc on CHOS cells expressing human TIGIT; positive control. The source holds these as a separate data set.
Experiment [5] shares this target. Briefly: flow cytometry on CHO cells overexpressing human TIGIT; reference antibody in the run with CHO-expressed antibodies.
Experiment [6] shares this target. Nature of the experiment: cell-based or functional assay. The source holds these as a separate data set.
The target of experiment [7] is T2, Human TIGIT-his (ACRO, TIT-H52H3) (human, UniProt Q495A1 22-141).
T2 construct: Bought protein
T2 sequence: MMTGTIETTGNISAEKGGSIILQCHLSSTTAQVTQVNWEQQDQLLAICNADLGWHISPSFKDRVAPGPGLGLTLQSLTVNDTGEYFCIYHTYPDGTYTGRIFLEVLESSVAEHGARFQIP
Nature of the experiment: BLI (ForteBio), antibody loaded on AHQ sensor, 100 nM TIGIT-his, 1:1 model, monovalent.

The target of experiment [8] is T3, Monkey TIGIT-his (ACRO, TIT-05223) (monkey).
T3 construct: Bought protein
The experiment is described as above.

Read-outs that look alike come from different tables or passages of the source.

B1: 31C6 (anti-human TIGIT reference antibody from Merck) (antibody, V domains shown)
VH: EVQLVQSGAEVKKPGASVKVSCKASGYTFSSYVMHWVRQAPGQGLEWIGYIDPYNDGAKYAQKFQGRVTLTSDKSTSTVYMELSSLRSEDTAVYYCARGGPYGWYFDVWGQGTTVTVSS
VL: DIQMTQSPSSLSASVGDRVTITCRASEHIYSYLSWYQQKPGKAPKLLIYNAKTLAEGVPSRFSGSGSGTDFTLTISSLQPEDFATYYCQHHFGSPLTFGQGTRLEIK
On to B1, for which the IC50 in experiment [1] was found to be 0.166 nM; in experiment [4], 0.154 nM. Besides, the values for the half-maximal effective concentration (EC50) in experiment [2] and in experiment [5] were 0.436 nM and 0.185 nM, respectively. Also, the “EC50, MOA-based assay (luciferase reporter under IL2 promoter), positive control in the run with CHO-expressed antibodies” value in experiment [3] was determined as 0.342 nM. Also, the “EC50, MOA-based assay (luciferase reporter under IL2 promoter)” value in experiment [6] came to 0.838 nM. Further, the Kd in experiment [7] is 2.34 nM; in experiment [8] it was 0.472 nM.

B2: 22G2 (anti-human TIGIT reference antibody from BMS) (antibody, V domains shown)
VH: QVHLQESGPGLVKPSETLSLTCTVSGGSVSSGIYYWSWIRQPPGKGLEWIGYIYYSGSTNYNPSLKSRVTISVDTSKNQFSLKLSSVTAADTAVYYCARDYYVSGNYYNVDYYFFGVDVWGQGTTVTVSS
VL: EIVLTQSPATLSLSPGERATLSCRASQSVSSYLAWYQQKPGQAPRLLIYDASNRATGIPARFSGSGSGTDFTLTISSLEPEDFAVYYCQQRSNWPPLFTFGPGTKVDIK
Turning to B2, the IC50 in experiment [1] came out at 0.607 nM; in experiment [4], 0.179 nM. Further, the EC50 in experiment [2] amounted to 0.511 nM; in experiment [5], 0.725 nM. The “EC50, MOA-based assay (luciferase reporter under IL2 promoter)” value in experiment [6] was 2.11 nM. The Kd in experiment [7] is 3.5 nM; in experiment [8], 4.2 nM.
